Assay results reported in patent US7897364.
Positions count from the first letter of the chain named.

T1: agrin-C45
T1 chain: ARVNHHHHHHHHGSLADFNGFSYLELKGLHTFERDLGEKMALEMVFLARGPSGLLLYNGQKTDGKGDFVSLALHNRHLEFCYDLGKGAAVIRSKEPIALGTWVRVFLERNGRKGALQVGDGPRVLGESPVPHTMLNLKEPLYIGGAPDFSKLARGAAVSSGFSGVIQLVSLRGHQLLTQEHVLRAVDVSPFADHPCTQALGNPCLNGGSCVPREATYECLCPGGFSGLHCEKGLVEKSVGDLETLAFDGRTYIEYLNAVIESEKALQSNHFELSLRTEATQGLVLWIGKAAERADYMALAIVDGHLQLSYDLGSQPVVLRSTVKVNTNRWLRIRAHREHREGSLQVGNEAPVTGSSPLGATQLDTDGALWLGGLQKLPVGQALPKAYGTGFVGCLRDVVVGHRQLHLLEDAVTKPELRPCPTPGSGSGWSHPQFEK

B1: human neurotrypsin (protein)
chain: FDSVLNDSLHHSHRHSPPAGPHYPYYLPTQQRPPRTRPPPPLPRFPRPPRALPAQRPHALQAGHTPRPHPWGCPAGEPWVSVTDFGAPCLRWAEVPPFLERSPPASWAQLRGQRHNFCRSPDGAGRPWCFYGDARGKVDWGYCDCRHGSVRLRGGKNEFEGTVEVYASGVWGTVCSSHWDDSDASVICHQLQLGGKGIAKQTPFSGLGLIPIYWSNVRCRGDEENILLCEKDIWQGGVCPQKMAAAVTCSFSHGPTFPIIRLAGGSSVHEGRVELYHAGQWGTVCDDQWDDADAEVICRQLGLSGIAKAWHQAYFGEGSGPVMLDEVRCTGNELSIEQCPKSSWGEHNCGHKEDAGVSCTPLTDGVIRLAGGKGSHEGRLEVYYRGQWGTVCDDGWTELNTYVVCRQLGFKYGKQASANHFEESTGPIWLDDVSCSGKETRFLQCSRRQWGRHDCSHREDVSIACYPGGEGHRLSLGFPVRLMDGENKKEGRVEVFINGQWGTICDDGWTDKDAAVICRQLGYKGPARARTMAYFGEGKGPIHVDNVKCTGNERSLADCIKQDIGRHNCRHSEDAGVICDYFGKKASGNSNKESLSSVCGLRLLHRRQKRIIGGKNSLRGGWPWQVSLRLKSSHGDGRLLCGATLLSSCWVLTAAHCFKRYGNSTRSYAVRVGDYHTLVPEEFEEEIGVQQIVIHREYRPDRSDYDIALVRLQGPEEQCARFSSHVLPACLPLWRERPQKTASNCYITGWGDTGRAYSRTLQQAAIPLLPKRFCEERYKGRFTGRMLCAGNLHEHKRVDSCQGDSGGPLMCERPGESWVVYGVTSWGYGCGVKDSPGVYTKVSAFVPWIKSVTKL
B2: mouse neurotrypsin (protein)
chain: DPVSRSPLHRPHPSPPRSQHAHYLPSSRRPPRTPRFPLPLRIPAAQRPQVLSTGHTPPTIPRRCGAGESWGNATNLGVPCLHWDEVPPFLERSPPASWAELRGQPHNFCRSPDGSGRPWCFYRNAQGKVDWGYCDCGQGPALPVIRLVGGNSGHEGRVELYHAGQWGTICDDQWDNADADVICRQLGLSGIAKAWHQAHFGEGSGPILLDEVRCTGNELSIEQCPKSSWGEHNCGHKEDAGVSCVPLTDGVIRLAGGKSTHEGRLEVYYKGQWGTVCDDGWTEMNTYVACRLLGFKYGKQSSVNHFDGSNRPIWLDDVSCSGKEVSFIQCSRRQWGRHDCSHREDVGLTCYPDSDGHRLSPGFPIRLVDGENKKEGRVEVFVNGQWGTICDDGWTDKHAAVICRQLGYKGPARARTMAYFGEGKGPIHMDNVKCTGNEKALADCVKQDIGRHNCRHSEDAGVICDYLEKKASSSGNKEMLSSGCGLRLLHRRQKRIIGGNNSLRGAWPWQASLRLRSAHGDGRLLCGATLLSSCWVLTAAHCFKRYGNNSRSYAVRVGDYHTLVPEEFEQEIGVQQIVIHRNYRPDRSDYDIALVRLQGPGEQCARLSTHVLPACLPLWRERPQKTASNCHITGWGDTGRAYSRTLQQAAVPLLPKRFCKERYKGLFTGRMLCAGNLQEDNRVDSCQGDSGGPLMCEKPDESWVVYGVTSWGYGCGVKDTPGVYTRVPAFVPWIKSVTSL
B3: catalytically inactive neurotrypsin (Neurotrypsin Ser711Ala) (protein)
chain: B2 chain with S690A

Key:
agrin-C45 = target: T1, agrin-C45
[1] = target: rat agrin, transmembrane isoform containing the splice variants Y4 and Z8, P25304
Sequence of rat agrin, transmembrane isoform containing the splice variants Y4 and Z8, P25304 (P25304 whole entry, looked up, change not shown, canonical isoform): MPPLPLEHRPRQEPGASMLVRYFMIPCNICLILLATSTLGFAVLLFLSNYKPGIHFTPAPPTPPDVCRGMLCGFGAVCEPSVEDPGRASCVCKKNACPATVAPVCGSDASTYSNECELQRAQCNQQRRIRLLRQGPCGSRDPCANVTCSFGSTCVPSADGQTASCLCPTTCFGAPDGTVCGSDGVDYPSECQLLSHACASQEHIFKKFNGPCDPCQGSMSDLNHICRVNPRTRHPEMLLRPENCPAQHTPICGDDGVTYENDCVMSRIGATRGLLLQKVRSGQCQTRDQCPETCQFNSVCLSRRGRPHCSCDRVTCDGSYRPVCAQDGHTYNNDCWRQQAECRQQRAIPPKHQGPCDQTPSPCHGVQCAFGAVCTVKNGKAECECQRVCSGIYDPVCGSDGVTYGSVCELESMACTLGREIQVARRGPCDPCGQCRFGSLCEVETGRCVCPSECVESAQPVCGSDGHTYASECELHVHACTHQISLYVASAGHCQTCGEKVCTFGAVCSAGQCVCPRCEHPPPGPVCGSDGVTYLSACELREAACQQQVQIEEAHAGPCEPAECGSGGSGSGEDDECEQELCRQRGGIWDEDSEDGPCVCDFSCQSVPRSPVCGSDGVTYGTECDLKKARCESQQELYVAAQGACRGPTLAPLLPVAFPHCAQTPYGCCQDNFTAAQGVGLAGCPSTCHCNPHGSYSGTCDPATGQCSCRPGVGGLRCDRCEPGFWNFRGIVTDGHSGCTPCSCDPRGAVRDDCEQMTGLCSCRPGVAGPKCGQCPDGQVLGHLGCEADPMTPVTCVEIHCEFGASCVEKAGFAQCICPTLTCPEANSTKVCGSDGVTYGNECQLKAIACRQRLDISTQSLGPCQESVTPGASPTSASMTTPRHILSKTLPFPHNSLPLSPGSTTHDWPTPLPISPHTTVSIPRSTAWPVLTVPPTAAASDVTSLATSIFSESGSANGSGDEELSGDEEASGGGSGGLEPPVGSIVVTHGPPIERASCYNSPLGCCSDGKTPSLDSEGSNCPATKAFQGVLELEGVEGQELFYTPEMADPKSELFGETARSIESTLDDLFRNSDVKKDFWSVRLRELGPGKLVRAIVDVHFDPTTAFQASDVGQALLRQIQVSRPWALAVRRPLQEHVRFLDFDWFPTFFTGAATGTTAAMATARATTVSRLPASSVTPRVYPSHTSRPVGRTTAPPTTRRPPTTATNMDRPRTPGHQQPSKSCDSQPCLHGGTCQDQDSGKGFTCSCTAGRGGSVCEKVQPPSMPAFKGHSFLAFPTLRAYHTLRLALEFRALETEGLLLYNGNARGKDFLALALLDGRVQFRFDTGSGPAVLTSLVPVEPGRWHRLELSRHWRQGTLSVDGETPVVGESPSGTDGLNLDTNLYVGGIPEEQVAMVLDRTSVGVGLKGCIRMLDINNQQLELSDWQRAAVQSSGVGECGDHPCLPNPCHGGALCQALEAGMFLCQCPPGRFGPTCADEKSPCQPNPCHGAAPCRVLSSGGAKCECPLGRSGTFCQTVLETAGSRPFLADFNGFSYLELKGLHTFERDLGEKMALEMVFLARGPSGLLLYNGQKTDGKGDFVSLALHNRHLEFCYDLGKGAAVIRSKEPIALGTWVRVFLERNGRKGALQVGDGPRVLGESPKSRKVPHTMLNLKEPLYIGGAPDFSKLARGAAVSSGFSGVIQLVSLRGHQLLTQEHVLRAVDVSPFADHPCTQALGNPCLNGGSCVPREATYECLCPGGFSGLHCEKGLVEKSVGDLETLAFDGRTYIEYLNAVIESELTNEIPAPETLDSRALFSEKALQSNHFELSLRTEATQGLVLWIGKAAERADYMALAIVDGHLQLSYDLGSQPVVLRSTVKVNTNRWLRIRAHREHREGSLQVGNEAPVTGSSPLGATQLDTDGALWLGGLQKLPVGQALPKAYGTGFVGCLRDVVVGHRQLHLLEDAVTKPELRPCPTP

[2] = target: agrin (endogenous, in mouse spinal cord and brain), A2ASQ1
Sequence of agrin (endogenous, in mouse spinal cord and brain), A2ASQ1 (A2ASQ1 whole entry): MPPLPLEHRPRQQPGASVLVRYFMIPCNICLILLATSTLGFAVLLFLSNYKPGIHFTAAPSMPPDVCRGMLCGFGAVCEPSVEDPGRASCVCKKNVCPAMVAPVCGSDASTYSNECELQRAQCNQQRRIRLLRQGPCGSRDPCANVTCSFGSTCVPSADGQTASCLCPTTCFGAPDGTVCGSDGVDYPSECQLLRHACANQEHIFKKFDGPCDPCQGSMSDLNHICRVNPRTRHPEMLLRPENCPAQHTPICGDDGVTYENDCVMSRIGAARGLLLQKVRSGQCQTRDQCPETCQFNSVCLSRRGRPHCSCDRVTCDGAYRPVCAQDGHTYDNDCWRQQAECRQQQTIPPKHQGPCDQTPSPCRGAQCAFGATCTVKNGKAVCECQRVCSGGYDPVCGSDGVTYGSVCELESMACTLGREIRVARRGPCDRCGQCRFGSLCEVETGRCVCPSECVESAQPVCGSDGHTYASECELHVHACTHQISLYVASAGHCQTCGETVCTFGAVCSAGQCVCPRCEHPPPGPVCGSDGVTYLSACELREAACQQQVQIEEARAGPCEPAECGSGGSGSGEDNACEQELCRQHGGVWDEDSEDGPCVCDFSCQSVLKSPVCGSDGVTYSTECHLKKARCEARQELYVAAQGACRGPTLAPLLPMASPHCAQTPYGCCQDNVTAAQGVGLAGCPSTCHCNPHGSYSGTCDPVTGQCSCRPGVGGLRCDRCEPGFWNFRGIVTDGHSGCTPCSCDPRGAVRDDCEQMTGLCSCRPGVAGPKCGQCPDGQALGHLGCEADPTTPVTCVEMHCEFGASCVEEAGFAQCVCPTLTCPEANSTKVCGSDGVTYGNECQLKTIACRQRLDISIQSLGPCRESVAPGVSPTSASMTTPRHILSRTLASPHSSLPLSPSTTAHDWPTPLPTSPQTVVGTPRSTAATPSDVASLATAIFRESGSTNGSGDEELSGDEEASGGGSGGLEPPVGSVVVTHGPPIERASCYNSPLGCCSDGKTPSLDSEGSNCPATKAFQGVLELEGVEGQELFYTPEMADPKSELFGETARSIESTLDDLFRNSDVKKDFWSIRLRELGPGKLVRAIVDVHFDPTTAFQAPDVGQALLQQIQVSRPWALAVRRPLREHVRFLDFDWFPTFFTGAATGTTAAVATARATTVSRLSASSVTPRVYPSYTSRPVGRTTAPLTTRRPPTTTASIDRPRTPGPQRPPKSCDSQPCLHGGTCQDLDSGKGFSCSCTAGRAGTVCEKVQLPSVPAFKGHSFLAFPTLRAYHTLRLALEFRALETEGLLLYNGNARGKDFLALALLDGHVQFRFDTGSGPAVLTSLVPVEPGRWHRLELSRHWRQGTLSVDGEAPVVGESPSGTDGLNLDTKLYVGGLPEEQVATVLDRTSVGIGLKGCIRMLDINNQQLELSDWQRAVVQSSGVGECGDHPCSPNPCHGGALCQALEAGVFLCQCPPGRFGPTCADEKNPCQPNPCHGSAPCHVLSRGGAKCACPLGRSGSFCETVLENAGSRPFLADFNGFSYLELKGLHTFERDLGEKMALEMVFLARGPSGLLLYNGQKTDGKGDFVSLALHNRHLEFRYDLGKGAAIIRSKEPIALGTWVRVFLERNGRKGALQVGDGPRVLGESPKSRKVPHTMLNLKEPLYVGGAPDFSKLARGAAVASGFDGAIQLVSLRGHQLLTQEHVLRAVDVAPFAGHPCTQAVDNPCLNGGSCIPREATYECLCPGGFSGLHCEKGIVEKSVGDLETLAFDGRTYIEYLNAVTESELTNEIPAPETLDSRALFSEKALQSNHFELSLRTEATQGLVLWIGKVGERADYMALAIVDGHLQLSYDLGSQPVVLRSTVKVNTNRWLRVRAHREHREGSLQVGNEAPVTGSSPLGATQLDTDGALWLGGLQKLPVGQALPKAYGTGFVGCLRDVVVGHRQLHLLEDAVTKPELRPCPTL

Row | Protein | cleavage of purified agrin-EGFP by purified neurotrypsin (SDS-PAGE, Western blot) (agrin-EGFP) | cleavage of purified agrin-C45 by purified neurotrypsin (silver stained SDS-PAGE) (agrin-C45) | release of a 100-kDa agrin fragment into the culture medium (Western blot) [1] | temporal pattern of the C-terminal 100-kDa agrin fragment and of neurotrypsin in mouse spinal cord (Western blot) [2] | 150 kDa C-terminal fragment of agrin-EGFP (Western blot) (agrin-EGFP)
1 | B1 | Lane 2 shows the agrin-EGFP (indicated by arrow marked Ag-EGPF) and the C-terminal fragment of approximately 150 kDa generated by neurotrypsin activity | The cleavage products agrin-C45 are found between 20 and 25 kDa | – | – | –
2 | B2 | – | – | In 200 µl culture medium of double transfected HEK293T cells a 100-kDa band was detected with the anti-agrin antibody | Western blotting with antibodies versus the C-terminal moiety of agrin revealed a highly similar temporal pattern | Western blot detection of the 150 kDa C-terminal fragment of agrin (Ag-CF) generated by neurotrypsin-mediated cleavage of agrin-EGFP
3 | B3 | – | – | no signal was detected in medium of HEK293T cells transfected with agrin and catalytically inactive neurotrypsin | – | –
